From paper PMC10720262 (Cell Reports, 2023) come the findings set out here.

The experiment addresses recombinant full-length PfCSP (Plasmodium falciparum circumsporozoite protein, strain NF54) (Plasmodium falciparum NF54, UniProt P19597).

recombinant full-length PfCSP (Plasmodium falciparum circumsporozoite protein, strain NF54), sequence (P19597 20-375): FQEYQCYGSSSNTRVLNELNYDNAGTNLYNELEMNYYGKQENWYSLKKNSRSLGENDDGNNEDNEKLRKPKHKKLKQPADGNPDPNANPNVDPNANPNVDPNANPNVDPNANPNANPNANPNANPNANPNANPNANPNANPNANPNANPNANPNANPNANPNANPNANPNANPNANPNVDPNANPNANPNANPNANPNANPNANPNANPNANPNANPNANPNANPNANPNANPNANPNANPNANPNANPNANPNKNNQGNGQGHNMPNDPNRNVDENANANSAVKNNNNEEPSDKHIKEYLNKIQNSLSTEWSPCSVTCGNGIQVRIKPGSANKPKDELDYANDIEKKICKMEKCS

B1: CL-445457 (antibody, V domains shown)
VH: QVQLVESGGAVVQPGTSLRLSCAASGFTFSNYGIHWVRQAPGKGLQWVALIWYNGNNKFYADSVQGRFTISRDNSKNILYLQINSLSAEDTAVYYCARAFYSDSGNYMDYWGQGALVTVSS
VL: DIQMTQSPSSVSASVGDRVTITCRARQDISSRLAWYQQKPGKAPKILIYGASSLQSGVPSRFSASGSGTDFTLTISSLQPEDVASYFCQQANSFPWTFGQGTKVEIK
In the case of B1, the binding result is “binds”.

B2: CL-445635 (antibody, V domains shown)
VH: QVQLVESGGAVVQPGTSLRLSCAASGFTFSNYGMHWVRQAPGKGLQWVALIWYNGNNKFYAESVEGRFIISRDNSKNILFLQMNSLSAEDTAVYYCARAFYYDSGNYLDYWGPGSLVTVSS
VL: DIQMTQSPSSVSASVGDRVTITCRARQDISSRLAWYQQKPGKAPKILIYGASSLQSGVPSRFSASGSGTDFTLTISSLQPEDFATYYCQQANSFPWTFGQGTKVEIK
With B2, the binding result is given as “binds”.

B3: CL-445901 (antibody, V domains shown)
VH: QVQLVESGGGVVQPGRSLRLSCAASGFTFSNYGIHWVRQAPGKGLEWVALIWFNGNNKFYADSVEGRFTVSRDNSKNTLYLQLNSLRAEDTAVYYCARAYYFASGNYMDYWGQGTLVTVSS
VL: DIQMTQSPSSVSASMGDRVTITCRASQDISSSLAWYQQKPGKAPILLISFASSLHSGVPSRFSGSGSGTDFTLTISSLQPEDFATYSCQQANSFPWTFGQGTRVEVK
On to B3, for which the binding result is reported as “binds”.

B4: CL-447376 (antibody, V domains shown)
VH: QVQLVESGGGVVQPGRSLRLSCAASGFNFNNYGMHWVRQAPVMGLEWVAIIWYDGSNKFYADSVKGRFTISRDNSQNTLFLQMNSLRAEDTGIYYCARSGGEMGNFDYWGQGTLVTVSS
VL: DIVMTQSPLSLPVTLGQPASISCRSSQSLVYSNGDTYLDWFQLRPGQSPRRLIYKVSHRDSGVPDRFSGSGSGTEFTLRISRVEAEDVGIYYCMQGTHYWTFGQGTEVEIK
For B4, the binding result is on record as “binds”.

B5: CL-447737 (antibody, V domains shown)
VH: QVQLVESGGGVVQPGRSLRLSCAASGFTFSSYGMHWVRQAPGKGLEWVAIIWFDGSNIFYEDSVKGRFTISRDNSKNTLYLQMNSLRAEDTAVYYCAKVWNYDSDYYSMDVWGQGTTVTVSS
VL: not shown
With B5, the binding result is listed as “binds”.

B6: CL-449724 (antibody, V domains shown)
VH: QVHLVASGGGVVQPGRSLRLSCEVTGFTFSSYGMHWVRQDPGRGLEWVAIIWYDGSNKFYADSVKGRFTISRDNSKNTLYLQMNSLRAEDTAVYYCARSYGILTGYQTKYGMDVWGQGTTVTVSS
VL: not shown
Turning to B6, the binding result is “binds”.

B7: CL-444639 (antibody, V domains shown)
VH: QVQLVESGGGVVQPARSLRLSCAASGFTFSSYGMHWVRQAPGKGLEWVAVIWYDGSNKYYADSVKGRFTISRDNSKNTLYLQMNSLRAEDTAVYYCAKVGDFYGSGSYPHYYGMDVWGQGTTVTVSS
VL: not shown
For the molecule B7, the binding result is recorded as “binds”.

B8: CL-444691 (antibody, V domains shown)
VH: QVQLVESGGGVVQPGRSLRLSCAASGFTFSNYGMHWVRQAPGKGLEWVAVIWYDGSNKFYADSVKGRFTISRDNSKNTLYLQMNSLRAEDTAVYYCARDGGYNKNSGSYGWFDPWGQGTLVTVSS
VL: DIQMTQSPSTLSASVGDRVTITCRASQSVSTWLAWYQQKPGKAPKLLIYKASSLESGVPSRFSGSGSGTEFTLTISSLQPDDFATYYCQQYNSYFTFGQGTRLEIK
Take B8: the binding result is reported as “binds”.

B9: CL-445827 (antibody, V domains shown)
VH: QVQLVASGGGVVQPGRSLRLSCVASGFTFSFFGMHWVRQTPGRGLEWVAIIWYDGGHKFYADSVKGRFTISRDNSKDTLYLQMNSLRAEDTAVYYCARAEDNMARGNIDYSKYGMDVWGQGTTVTVSS
VL: DIQMTQSPSTLSVSIGDRVTITCRASQSISTWLAWYQQKPGKAPKLLIYKASNLESGVPSRFSGSGSGTDFTLTISGLQPDDFATYYCQQYFSYWTFGQGTKVEIK
As for B9, the binding result is listed as “binds”.

B10: CL-449759 (antibody, V domains shown)
VH: QVHLVESGGGVVQPGESQRLSCAASGFTFSNYGMHWVRQAPGKGLEWVALIWYDGSNKFYADSVKGRFTISRDNSKNTLYLHMNSLRAEDTAMYYCAKVPNWNDDKYTMDVWGQGTTVTVTS
VL: not shown
Turning to B10, the binding result is recorded as “binds”.

B11: CL-447703 (antibody, V domains shown)
VH: QVQLVESGGGVVQPGRSLRLSCEASGFTFSDHGMHWVRQGPGKGLEWVSIIWYDGSNKYYADSVKGRFTISRDNSKNTLYLEMNRLRAEDTALYYCARVWNHDDYKYSMDVWGQGTTVTVSS
VL: not shown
With B11, the binding result is “binds”.

B12: CL-444592 (antibody, V domains shown)
VH: QVQLVESGGGVVQPGRSLRLSCAASGFTFSSYGMHWVRQAPGKGLEWVAVIWYDGSNKYYADSVKGRFTISRDNSKNTLYLQMNSLRAEDTAVYYCARDGNWNYNYYYGMDVWGQGTTVTVSS
VL: DIQLTQSPSFLSASVGDRVTITCWASQGISSYLAWYQQKPGKAPKLLIYAASTLQSGVPSRFSGSGSGTEFTLTISSLQPEDFATYYCQQLNSYPPTFGQGTRLEIK
Regarding B12, the binding result is “binds”.

B13: CL-444906 (antibody, V domains shown)
VH: QVQLVESGGGVVQPGRSLRLSCTASGFTFSTYGMHWVRQAPGKGLEWVAIIWYDGSNKFYADSVKGRFTISRDNSKDTLYLQMNSLRAEDTAIYYCARAWDKVDDKYGMDVWGQGTTVTVSS
VL: not shown
Turning to B13, the binding result was “binds”.

B14: CL-444739 (antibody, V domains shown)
VH: QVHLVESGGGVVQPGRSLRLSCVASGFSFSSYGMHWVRQAPGKGLEWVAIIWYDGSNRYYADSVQGRFTISRDNSKNTLYLQMNSLRAEDTAVYYCAKVGLSYNGRTGAFDVWGQGTMVTVSS
VL: not shown
Turning to B14, the binding result is reported as “binds”.

B15: CL-444424 (antibody, V domains shown)
VH: QVQLVESGGGVVQPGRSLRLSCTASGFTFSNYGMHWIRQAPGKGLEWVAIIWFDGSSQYYADSVKGRFTISRDNSKNTLYLQMNSLRAEDTAVYYCVRALYDSGSLFDFWGLGTLVTVSS
VL: DIQMTQSPSTLSASVGDRVTITCRASQNISSLLAWYQQKPGKAPKLLIYKASSLESGVPSRFSGNGSGTEFTLTVSSLQPDDFATYSCLQYNNYWTFGQGTKVEIK
With B15, the binding result is reported as “binds”.

B16: CL-444882 (antibody, V domains shown)
VH: QVHLVESGGGVVQPGRSLRLSCATSGFSFSSYGMHWVRQAPGKGLEWVAIIWYDGSNKFYADSVKGRFTISRDNSENTLYLQMNSLRAEDTAVYYCAKVGLSYSGRTGAFDIWGQGTMVTVSS
VL: DIQMTQSPSTLSASVGDRVTITCRASQSISIWLAWYQQKPGKAPKLLIYKAASLESGVPSRISGSGSGTEFTLTISSLQPDDFATYYCQQYNSYWTFGQGTKVEIK
Take B16: the binding result is “binds”.

B17: CL-449849 (antibody, V domains shown)
VH: QVQLVESGGGAVQAGTSLRLSCAASGFTFSYNGMHWVRQGPGKGLEWVAIIWYDGGNKFYADSVKGRFTISRDNSKNMLYLQMNRLRAEDTAVYYCARAWNFADNKYSMDVWGQGTTVTVSS
VL: DIQMTQSPSTLSASVGDRVTITCRASQSISSWLAWYQQKPGKAPQLLIYKASSLESGVPSRFSGSGSGTEFTLTISSLQPDDFATYYCQQYYIYWTFGQGTKVDIK
B17: the binding result is “binds”.

B18: CL-447609 (antibody, V domains shown)
VH: QVQLVESGGGVVQPGRSLRLSCAASGFTFNNYGMHWVRQAPGKGLDWVAIIWFDGSNKYYADSVKGRFTISRDNSKNTLYLQMNSLRAEDTAVYYCARVGDHSKYRNRGDAFDIWGQGTMVTVSS
VL: DIQMTQSPSTLSASVGDRVTITCRASQSISSWLAWYQQKPGKAPKLLIYKASSLESGVPSRFSGSGSGTEFTLTISSLQPDDSATYFCQQYDSYWTFGQGTKVEIK
Consider B18, for which the binding result was “binds”.

B19: CL-449007 (antibody, V domains shown)
VH: QVQVVESGGGVVQPGRSLRLSCAASGFTFSNYGMHWVRQAPGKGLEWVAIIWYDGSHKFYANSVKGRFTISRDNSKNTLFLQMNSLRAEDTAVYYCARVGNGNSDWTDAFDIWGQGTMVTVSS
VL: DIQMTQSPSTLSASVGDRVTITCRASQSINSWLAWYQQKPGKAPKLLIYKASSLESGVPSRFSGSGSGTEFTLTISSLQPDDFATYYCQQYNTYWTFGQGTKVEIK
As for B19, the binding result was “binds”.

B20: CL-447563 (antibody, V domains shown)
VH: QVQLVASGGGVVQPGRSLRLSCAASGFTFSNYGMHWVRQAPGKGLEWVAIIWYDGSKKYYSDSVKGRFTISRDNSKNTLYLQMNSLRAEDTAVYYCARAYGSGSYSDDYYGMDVWGQGTTVTVSS
VL: DIQMTQSPSTLSASVGDRVTITCRASQSISTWLAWYQQKPGKAPKLLIYKASNLESGVPSRFSGSGSGTEFTLTISSLQPDDFATYYCQQYYSYWTFGQGTKVEIK
Turning to B20, the binding result was “binds”.

B21: CL-444588 (antibody, V domains shown)
VH: QVQLVESGGGVVQPGRSLRLSCAASGFTFSGYGMHWVRQTPGKGLGWVALIWYDGSNKFYADSVRGRFTISRDNSKNTLYLQMNSLRAEDTAIYYCARSYPSGSRGDKYGMDVWGQGTTVTVSL
VL: DIQMTQSPSTLSASVGDRVTITCRASQSISTWLAWFQQKPGKAPKLLIYKASSLESGVPSRFTGSGSGTEFTLTISSLQPDDFATYYCQQYNSYWTFGQGTKVEIK
As for B21, the binding result was “binds”.

B22: CL-444653 (antibody, V domains shown)
VH: QVQLVESGGGVVQPGRSLRLSCTASGFTFSTYGMHWVRQAPGKGLEWVAIIWYDGGNKFYADSVKGRFTISRDNSKDTLYLQMNSLRAEDTAVYYCAKAWYKVDDKYSMDVWGQGTTVTVSS
VL: DIQMTQSPSTLSASVGDRVTITCRASQSISSWLAWYQQKPGKAPKLLIYKASSLESGVPSRFSGSGSGTEFTLTISGLQPDDFATYYCQQYINYWTFGQGTKVEIK
As for B22, the binding result was “binds”.

B23: CL-444469 (antibody, V domains shown)
VH: QVQLVESGGGVVQPGRSLRVSCEVSGLTFSNYGMHWVRQAPGKRLEWVAIIWYDGSNKYYADSVKGRFTISRDNSKNTLYLQMNSLRAEDTAVYYCARSYGSGSRGDYYGMDVWGQGTTVTVSS
VL: DIQMTQSPSTLSASVGDRVTITCRASQSISSWLAWFQQKPGKAPKLLIYKASSLESGVPSRFSGSGSGTEFTLTISSLQPDDFATYYCQQYYSYWTFGQGTKVEIK
For the molecule B23, the binding result was “binds”.
